Source: PMC9734383 (2022)
Several values for one entry are separate records, joined by “and”; a condition that tells them apart may be missing. Equal values may be shown once.

How the values were obtained:
Experiment in all cases: BLI
[1] = biological target: H12 HA (recombinant HA of the panel) (influenza A virus (strain  in …))
[2] = biological target: H17 HA (recombinant HA of the panel) (influenza A virus, bat H17N10 (strain …))
[3] = biological target: H15 HA (recombinant HA of the panel) (influenza A virus (strain  in …))
[4] = biological target: H6 HA (recombinant HA of the panel) (influenza A virus (strain  in …))
[5] = biological target: H8 HA (recombinant HA of the panel) (influenza A virus (strain  in …))
[6] = biological target: H4 HA (recombinant HA of the panel) (influenza A virus (strain  in …))
[7] = biological target: H18 HA (recombinant HA of the panel) (influenza A virus, bat H18N11 (strain …))
[8] = biological target: H11 HA (recombinant HA of the panel) (influenza A virus (strain  in …))
[9] = biological target: H10 HA (recombinant HA of the panel) (influenza A virus (strain  in …))
[10] = biological target: H14 HA (recombinant HA of the panel) (influenza A virus (strain  in …))
[11] = biological target: H9 HA (recombinant HA of the panel) (influenza A virus (strain  in …))
[12] = biological target: H5 HA (recombinant HA of the panel) (influenza A virus (strain  in …))
[13] = biological target: H1-HA (A/swine/Guangdong/104/2013) (influenza A virus …)
[14] = biological target: H3 HA (recombinant HA of the panel) (influenza A virus (strain  in …))
[15] = biological target: H1 HA (recombinant HA of the panel) (influenza A virus (strain  in …))

B1: PN-SIA28 Fab (Fab, V domains shown)
VH: QVQLVESGGGVVQPGRSLRLSCAASGFPFSSYGMHWVRQAPGKGLEWVAGVSYDGSYKYYADSVKGRFTISRDSSKSTLYLQMNSLRPEDTAVYYCARPSAIFGIYIILNGLDVWGQGTTVTVSS
VL: EIVLTQSPSSVSASVGDRVTITCRATQGISSWLAWYQQKPGKPPKLLIFGASSLQSGVPSRFSGSGSGTDFTLTISSLQPEDFATYFCQQAHSFPLTFGGGTKVEIK
Kd [1]: 14.9 µM
Kd [2]: 208 nM
Kd [3]: 2380 nM
Kd [4]: 66.8 nM
Kd [5]: 36 nM
Kd [6]: 201 nM
Kd [7]: 40.2 nM
Kd [8]: 682 nM
Kd [9]: 1160 nM
Kd [10]: 171 nM
Kd [11]: 34.3 nM
Kd [12]: 6.3 nM and 6.79 nM
Kd [13]: 0.26 nM
Kd [14]: 144 nM
Kd [15]: 0.174 nM
